{
  "source": "patent US20230121197A1",
  "about": "“ANTIBODIES SPECIFICALLY BINDING THE CARBOXYMETHYLATED CATALYTIC SUBUNIT OF PROTEIN PHOSPHATASE 2A” (Medizinische Universität Wien, priority 2020, published 2023)",
  "molecules": {"B1": {"name": "7C10-C5 monoclonal antibody (antibody, V domains shown)", "VH": "DVQLQESGPGLVKPSQSLSLTCSVTGYSITSGYYWNWIRQFPGNKLEWMGYISYDGSNNYNPSLKNRISITRDTSKNQFFLKLNSVTTEDTATYYCAGRFAYWGQGTLVTVSA", "VL": "DVLMTQTPLSLPVSLGDQASISCRSSQSIVHSNGNTYLEWYLQKPGQSPKLLIYKVSNRFSGVPDRFSGSGSGTDFTLKINRVEAEDLGVYYCFQGSHVPWTFGGGTKLEIK", "notes": "Used as hybridoma culture supernatant (ELISA, Western blot, IHC) or at 50 µg/mL (SPR); also called 7C10 X63; clone 7C10-C5"}, "B2": {"name": "7C10-C5: α-carboxymethylation specific mouse monoclonal IgG1 antibody from single clone hybridoma 7C10-C5 (DSM ACC3350) (antibody)", "heavy": "MYRMQLLSCIALSLALVTNSDVQLQESGPGLVKPSQSLSLTCSVTGYSITSGYYWNWIRQFPGNKLEWMGYISYDGSNNYNPSLKNRISITRDTSKNQFFLKLNSVTTEDTATYYCAGRFAYWGQGTLVTVSAAKTTAPSVYPLAPVCGDTTGSSVTLGCLVKGYFPEPVTLTWNSGSLSSGVHTFPAVLQSDLYTLSSSVTVTSSTWPSQSITCNVAHPASSTKVDKKIEPRGPTIKPCPPCKCPAPNLLGGPSVFIFPPKIKDVLMISLSPIVTCVVVDVSEDDPDVQISWFVNNVEVHTAQTQTHREDYNSTLRVVSALPIQHQDWMSGKEFKCKVNNKDLPAPIERTISKPKGSVRAPQVYVLPPPEEEMTKKQVTLTCMVTDFMPEDIYVEWTNNGKTELNYKNTEPVLDSDGSYFMYSKLRVEKKNWVERNSYSCSVVHEGLHNHHTTKSFSRTPGK", "light": "MDMRVPAQLLGLLLLWLSGARCDVLMTQTPLSLPVSLGDQASISCRSSQSIVHSNGNTYLEWYLQKPGQSPKLLIYKVSNRFSGVPDRFSGSGSGTDFTLKINRVEAEDLGVYYCFQGSHVPWTFGGGTKLEIKADAAPTVSIFPPSSEQLTSGGASVVCFLNNFYPKDINVKWKIDGSERQNGVLNSWTDQDSKDSTYSMSSTLTLTKDEYERHNSYTCEATHKTSTSPIVKSFNRNEC", "modifications": "Amino acid sequence of the recombinant 7C10-C5 heavy chain; Amino acid sequence of the recombinant 7C10-C5 light chain"}},
  "molecular_target": "T1, HA-tagged yeast PP2Ac (PPH21) (Saccharomyces cerevisiae, UniProt P23594)",
  "T1 construct": "expressed in transfected cells; host or cells: yeast BY4741 (wildtype, ppe1Δ, ppm1Δ)",
  "T1 sequence (P23594 whole entry)": "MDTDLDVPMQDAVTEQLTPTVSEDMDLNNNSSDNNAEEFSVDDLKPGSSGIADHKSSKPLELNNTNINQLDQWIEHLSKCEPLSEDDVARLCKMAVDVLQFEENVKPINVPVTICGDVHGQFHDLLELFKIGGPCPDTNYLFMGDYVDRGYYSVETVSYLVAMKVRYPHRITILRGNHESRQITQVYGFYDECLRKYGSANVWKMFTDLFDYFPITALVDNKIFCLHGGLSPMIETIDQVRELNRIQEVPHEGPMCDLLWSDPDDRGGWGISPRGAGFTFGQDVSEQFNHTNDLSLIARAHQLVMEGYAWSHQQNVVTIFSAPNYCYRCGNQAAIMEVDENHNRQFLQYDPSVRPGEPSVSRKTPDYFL",
  "assay": "Western blot of yeast BY4741 strain lysates (wt, ppe1Δ, ppm1Δ, NaOH)",
  "assay_type": "binding",
  "from_the_text": "Yeast strain BY4741 expressing HA-tagged yeast PP2Ac (PPH21) was used as a background. Of note, the 6 C-terminal amino acids of mammalian/human PP2Ac are identical to the yeast PP2A catalytic subunit PPH21. The BY4741 wildtype (WT) strain contained carboxymethylated PP2Ac and non-carboxymethylated PP2Ac. The BY4741 ppe1Δ strain contained high levels of carboxymethylated PP2Ac because the ppe1 gene was deleted. The BY4741 ppm1Δ strain lacked carboxymethylated PP2Ac because the ppm1 gene was deleted. Said yeast strains were further used for the characterization of monoclonal antibodies, i.e. 7C10-C5, as described further below. […]\nYeast cells were grown at 30° C. to exponential growth phase in drop-out complete medium (2.3 g/l Bacto yeast nitrogen base [Difco, 233520], 20 mg/l adenine, 20 mg/l L-arginine, 15 mg/l L-tyrosine, 15 mg/l L-isoleucine, 25 mg/l L-phenylalanine, 50 mg/l L-glutamic acid, 50 mg/l L-aspartic acid, 100 mg/l L-threonine, 200 mg/l L-serine, 75 mg/l L-valine, 75 mg/l L-methionine, 90 mg/l L-lysine, 20 mg/l uracil, 30 mg/l L-histidine, 0.05 M ammoniumsulfate) lacking L-leucine and containing 2% w/v glucose. Yeast cells were collected by centrifugation at 3,500 rpm at 4° C. in a Beckmann GS-6R centrifuge, washed with ice-cold water and the optical density at 600 nm (0D^600) was measured in a Hitachi U-2000 spectrophotometer. […]",
  "data": [
    {"molecule": "B1", "values": [
      {"measurement": "detection of PP2Ac in ppe1Δ (carboxymethylated) versus ppm1Δ / NaOH treated (non-carboxymethylated) lysates", "result": "detected PP2Ac only in the BY4741 ppe1Δ strain"}
    ]},
    {"molecule": "B2", "values": [
      {"measurement": "detection of PP2Ac in ppe1Δ (carboxymethylated) versus ppm1Δ / NaOH treated (non-carboxymethylated) lysates", "result": "only detected carboxymethylated PP2Ac"}
    ]}
  ]
}
